Measured values reported in patent publication US20260193342A1 (ZOETIS SERVICES, published 2026).

How the values were obtained:
[1] = target: T1, canine FcRn complex (FcRn-α subunit and β-microglobulin) (canine, UniProt A0A8I3PFR8 25-347, biotin on the BAP tag by BirA (Example 5 only)); experiment: SPR (Biacore), biotinylated FcRn on SA chip, IgG flowed, pH 6, 15 C
[2] = target: T1, canine FcRn complex (FcRn-α subunit and …); experiment: SPR (Biacore), biotinylated FcRn on SA chip, IgG flowed, pH 7.4, 15 C

T1 sequence (A0A8I3PFR8 entry or part of it, one chain of several): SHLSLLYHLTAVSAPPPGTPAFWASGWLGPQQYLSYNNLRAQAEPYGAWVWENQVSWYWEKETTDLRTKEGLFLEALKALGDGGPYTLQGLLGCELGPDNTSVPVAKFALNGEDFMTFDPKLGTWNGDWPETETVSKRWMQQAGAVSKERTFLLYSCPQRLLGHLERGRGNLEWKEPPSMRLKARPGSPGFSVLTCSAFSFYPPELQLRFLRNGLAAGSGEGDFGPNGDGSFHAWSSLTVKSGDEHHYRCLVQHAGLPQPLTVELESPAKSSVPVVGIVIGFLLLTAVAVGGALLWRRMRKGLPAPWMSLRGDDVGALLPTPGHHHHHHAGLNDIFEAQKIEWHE

| Kd [1] [nM] | Kd [2] [µM] | Binder |
| --- | --- | --- |
| 14.3 | 9.53 | mAb2 of Table 4A, caninized anti-NGF antibody ZTS-841, canine IgGA, N434Y (antibody, also called ID No. 45) heavy: EVQLVESGGDLVKPGGSLRLSCVASGFTFSSHGMHWVRQSPGKGLQWVAVINSGGSSTYYTDAVKGRFTISRDNAKNTVYLQMNSLRAEDTAMYYCAKESVGGWEQLVGPHFDYWGQGTLVIVSSASTTAPSVFPLAPSCGSTSGSTVALACLVSGYFPEPVTVSWNSGSLTSGVHTFPSVLQSSGLHSLSSMVTVPSSRWPSETFTCNVVHPASNTKVDKPVFNECRCTDTPPCPVPEPLGGPSVLIFPPKPKDILRITRTPEVTCVVLDLGREDPEVQISWFVDGKEVHTAKTQSREQQFNGTYRVVSVLPIEHQDWLTGKEFKCRVNHIDLPSPIERTISKARGRAHKPSVYVLPPSPKELSSSDTVSITCLIKDFYPPDIDVEWQSNGQQEPERKHRMTPPQLDEDGSYFLYSKLSVDKSRWQQGDPFTCAVMHETLQYHYTDLSLSHSPGK VL: QSVLTQPTSVSGSLGQRVTISCSGSTNNIGILGASWYQLFPGKAPKLLVYGNGNRPSGVPDRFSGADSGDSVTLTITGLQAEDEADYYCQSFDTTLGAHVFGGGTHLTVL |
| 1.93 | 0.594 | mAb2 of Table 4A, caninized anti-NGF antibody ZTS-841, canine IgGB, N434K (antibody, also called ID No. 51) heavy: EVQLVESGGDLVKPGGSLRLSCVASGFTFSSHGMHWVRQSPGKGLQWVAVINSGGSSTYYTDAVKGRFTISRDNAKNTVYLQMNSLRAEDTAMYYCAKESVGGWEQLVGPHFDYWGQGTLVIVSSASTTAPSVFPLAPSCGSTSGSTVALACLVSGYFPEPVTVSWNSGSLTSGVHTFPSVLQSSGLYSLSSMVTVPSSRWPSETFTCNVAHPASKTKVDKPVPKRENGRVPRPPDCPKCPAPEMLGGPSVFIFPPKPKDTLLIARTPEVTCVVVDLDPEDPEVQISWFVDGKQMQTAKTQPREEQFNGTYRVVSVLPIGHQDWLKGKQFTCKVNNKALPSPIERTISKARGQAHQPSVYVLPPSREELSKNTVSLTCLIKDFFPPDIDVEWQSNGQQEPESKYRTTPPQLDEDGSYFLYSKLSVDKSRWQRGDTFICAVMHEALHKHYTQESLSHSPGK VL: QSVLTQPTSVSGSLGQRVTISCSGSTNNIGILGASWYQLFPGKAPKLLVYGNGNRPSGVPDRFSGADSGDSVTLTITGLQAEDEADYYCQSFDTTLGAHVFGGGTHLTVL |
| 2.76 | 22.8 | mAb2 of Table 4A, caninized anti-NGF antibody ZTS-841, canine IgGB, N434I (antibody, also called ID No. 50) heavy: EVQLVESGGDLVKPGGSLRLSCVASGFTFSSHGMHWVRQSPGKGLQWVAVINSGGSSTYYTDAVKGRFTISRDNAKNTVYLQMNSLRAEDTAMYYCAKESVGGWEQLVGPHFDYWGQGTLVIVSSASTTAPSVFPLAPSCGSTSGSTVALACLVSGYFPEPVTVSWNSGSLTSGVHTFPSVLQSSGLYSLSSMVTVPSSRWPSETFTCNVAHPASKTKVDKPVPKRENGRVPRPPDCPKCPAPEMLGGPSVFIFPPKPKDTLLIARTPEVTCVVVDLDPEDPEVQISWFVDGKQMQTAKTQPREEQFNGTYRVVSVLPIGHQDWLKGKQFTCKVNNKALPSPIERTISKARGQAHQPSVYVLPPSREELSKNTVSLTCLIKDFFPPDIDVEWQSNGQQEPESKYRTTPPQLDEDGSYFLYSKLSVDKSRWQRGDTFICAVMHEALHIHYTQESLSHSPGK VL: QSVLTQPTSVSGSLGQRVTISCSGSTNNIGILGASWYQLFPGKAPKLLVYGNGNRPSGVPDRFSGADSGDSVTLTITGLQAEDEADYYCQSFDTTLGAHVFGGGTHLTVL |
| 25.2 | 0.573 | mAb1, caninized anti-IL31 antibody 34D03, canine IgGA, N434Y (antibody, VH/VL: the caninized 34D03 entries of the listing; also called ID No. 7; copies: 2 + 2) heavy: EVQLVESGGDLVKPGGSLRLSCVASGFTFSNYGMSWVRQAPGKGLQWVATISYGGSYTYYPDNIKGRFTISRDNAKNTLYLQMNSLRAEDTAMYYCVRGYGYDTMDYWGQGTLVTVSSASTTAPSVFPLAPSCGSTSGSTVALACLVSGYFPEPVTVSWNSGSLTSGVHTFPSVLQSSGLHSLSSMVTVPSSRWPSETFTCNVVHPASNTKVDKPVFNECRCTDTPPCPVPEPLGGPSVLIFPPKPKDILRITRTPEVTCVVLDLGREDPEVQISWFVDGKEVHTAKTQSREQQFNGTYRVVSVLPIEHQDWLTGKEFKCRVNHIDLPSPIERTISKARGRAHKPSVYVLPPSPKELSSSDTVSITCLIKDFYPPDIDVEWQSNGQQEPERKHRMTPPQLDEDGSYFLYSKLSVDKSRWQQGDPFTCAVMHETLQYHYTDLSLSHSPGK light: EIVMTQSPASLSLSQEEKVTITCKASQSVSFAGTGLMHWYQQKPGQAPKLLIYRASNLEAGVPSRFSGSGSGTDFSFTISSLEPEDVAVYYCQQSREYPWTFGQGTKLEIKRNDAQPAVYLFQPSPDQLHTGSASVVCLLNSFYPKDINVKWKVDGVIQDTGIQESVTEQDKDSTYSLSSTLTMSSTEYLSHELYSCEITHKSLPSTLIKSFQRSEC |
| 77.1 | 19.6 | mAb1, caninized anti-IL31 antibody 34D03, canine IgGB, N434I (antibody, VH/VL: the caninized 34D03 entries of the listing; also called ID No. 12; copies: 2 + 2) heavy: EVQLVESGGDLVKPGGSLRLSCVASGFTFSNYGMSWVRQAPGKGLQWVATISYGGSYTYYPDNIKGRFTISRDNAKNTLYLQMNSLRAEDTAMYYCVRGYGYDTMDYWGQGTLVTVSSASTTAPSVFPLAPSCGSTSGSTVALACLVSGYFPEPVTVSWNSGSLTSGVHTFPSVLQSSGLYSLSSMVTVPSSRWPSETFTCNVAHPASKTKVDKPVPKRENGRVPRPPDCPKCPAPEMLGGPSVFIFPPKPKDTLLIARTPEVTCVVVDLDPEDPEVQISWFVDGKQMQTAKTQPREEQFNGTYRVVSVLPIGHQDWLKGKQFTCKVNNKALPSPIERTISKARGQAHQPSVYVLPPSREELSKNTVSLTCLIKDFFPPDIDVEWQSNGQQEPESKYRTTPPQLDEDGSYFLYSKLSVDKSRWQRGDTFICAVMHEALHIHYTQESLSHSPGK light: EIVMTQSPASLSLSQEEKVTITCKASQSVSFAGTGLMHWYQQKPGQAPKLLIYRASNLEAGVPSRFSGSGSGTDFSFTISSLEPEDVAVYYCQQSREYPWTFGQGTKLEIKRNDAQPAVYLFQPSPDQLHTGSASVVCLLNSFYPKDINVKWKVDGVIQDTGIQESVTEQDKDSTYSLSSTLTMSSTEYLSHELYSCEITHKSLPSTLIKSFQRSEC |
| 139 | 0.175 | mAb1, caninized anti-IL31 antibody 34D03, canine IgGB, N434A (antibody, VH/VL: the caninized 34D03 entries of the listing; also called ID No. 9; copies: 2 + 2) heavy: EVQLVESGGDLVKPGGSLRLSCVASGFTFSNYGMSWVRQAPGKGLQWVATISYGGSYTYYPDNIKGRFTISRDNAKNTLYLQMNSLRAEDTAMYYCVRGYGYDTMDYWGQGTLVTVSSASTTAPSVFPLAPSCGSTSGSTVALACLVSGYFPEPVTVSWNSGSLTSGVHTFPSVLQSSGLYSLSSMVTVPSSRWPSETFTCNVAHPASKTKVDKPVPKRENGRVPRPPDCPKCPAPEMLGGPSVFIFPPKPKDTLLIARTPEVTCVVVDLDPEDPEVQISWFVDGKQMQTAKTQPREEQFNGTYRVVSVLPIGHQDWLKGKQFTCKVNNKALPSPIERTISKARGQAHQPSVYVLPPSREELSKNTVSLTCLIKDFFPPDIDVEWQSNGQQEPESKYRTTPPQLDEDGSYFLYSKLSVDKSRWQRGDTFICAVMHEALHAHYTQESLSHSPGK light: EIVMTQSPASLSLSQEEKVTITCKASQSVSFAGTGLMHWYQQKPGQAPKLLIYRASNLEAGVPSRFSGSGSGTDFSFTISSLEPEDVAVYYCQQSREYPWTFGQGTKLEIKRNDAQPAVYLFQPSPDQLHTGSASVVCLLNSFYPKDINVKWKVDGVIQDTGIQESVTEQDKDSTYSLSSTLTMSSTEYLSHELYSCEITHKSLPSTLIKSFQRSEC |
| 118 | 26 | mAb1, caninized anti-IL31 antibody 34D03, canine IgGB, N434G (antibody, VH/VL: the caninized 34D03 entries of the listing; also called ID No. 11; copies: 2 + 2) heavy: EVQLVESGGDLVKPGGSLRLSCVASGFTFSNYGMSWVRQAPGKGLQWVATISYGGSYTYYPDNIKGRFTISRDNAKNTLYLQMNSLRAEDTAMYYCVRGYGYDTMDYWGQGTLVTVSSASTTAPSVFPLAPSCGSTSGSTVALACLVSGYFPEPVTVSWNSGSLTSGVHTFPSVLQSSGLYSLSSMVTVPSSRWPSETFTCNVAHPASKTKVDKPVPKRENGRVPRPPDCPKCPAPEMLGGPSVFIFPPKPKDTLLIARTPEVTCVVVDLDPEDPEVQISWFVDGKQMQTAKTQPREEQFNGTYRVVSVLPIGHQDWLKGKQFTCKVNNKALPSPIERTISKARGQAHQPSVYVLPPSREELSKNTVSLTCLIKDFFPPDIDVEWQSNGQQEPESKYRTTPPQLDEDGSYFLYSKLSVDKSRWQRGDTFICAVMHEALHGHYTQESLSHSPGK light: EIVMTQSPASLSLSQEEKVTITCKASQSVSFAGTGLMHWYQQKPGQAPKLLIYRASNLEAGVPSRFSGSGSGTDFSFTISSLEPEDVAVYYCQQSREYPWTFGQGTKLEIKRNDAQPAVYLFQPSPDQLHTGSASVVCLLNSFYPKDINVKWKVDGVIQDTGIQESVTEQDKDSTYSLSSTLTMSSTEYLSHELYSCEITHKSLPSTLIKSFQRSEC |
| 30.7 | 33.7 | mAb1, caninized anti-IL31 antibody 34D03, canine IgGB, N434F (antibody, VH/VL: the caninized 34D03 entries of the listing; also called ID No. 10; copies: 2 + 2) heavy: EVQLVESGGDLVKPGGSLRLSCVASGFTFSNYGMSWVRQAPGKGLQWVATISYGGSYTYYPDNIKGRFTISRDNAKNTLYLQMNSLRAEDTAMYYCVRGYGYDTMDYWGQGTLVTVSSASTTAPSVFPLAPSCGSTSGSTVALACLVSGYFPEPVTVSWNSGSLTSGVHTFPSVLQSSGLYSLSSMVTVPSSRWPSETFTCNVAHPASKTKVDKPVPKRENGRVPRPPDCPKCPAPEMLGGPSVFIFPPKPKDTLLIARTPEVTCVVVDLDPEDPEVQISWFVDGKQMQTAKTQPREEQFNGTYRVVSVLPIGHQDWLKGKQFTCKVNNKALPSPIERTISKARGQAHQPSVYVLPPSREELSKNTVSLTCLIKDFFPPDIDVEWQSNGQQEPESKYRTTPPQLDEDGSYFLYSKLSVDKSRWQRGDTFICAVMHEALHFHYTQESLSHSPGK light: EIVMTQSPASLSLSQEEKVTITCKASQSVSFAGTGLMHWYQQKPGQAPKLLIYRASNLEAGVPSRFSGSGSGTDFSFTISSLEPEDVAVYYCQQSREYPWTFGQGTKLEIKRNDAQPAVYLFQPSPDQLHTGSASVVCLLNSFYPKDINVKWKVDGVIQDTGIQESVTEQDKDSTYSLSSTLTMSSTEYLSHELYSCEITHKSLPSTLIKSFQRSEC |
| 9.11 | 0.00786 | mAb1, caninized anti-IL31 antibody 34D03, canine IgGB, N434K (antibody, VH/VL: the caninized 34D03 entries of the listing; also called ID No. 13; copies: 2 + 2) heavy: EVQLVESGGDLVKPGGSLRLSCVASGFTFSNYGMSWVRQAPGKGLQWVATISYGGSYTYYPDNIKGRFTISRDNAKNTLYLQMNSLRAEDTAMYYCVRGYGYDTMDYWGQGTLVTVSSASTTAPSVFPLAPSCGSTSGSTVALACLVSGYFPEPVTVSWNSGSLTSGVHTFPSVLQSSGLYSLSSMVTVPSSRWPSETFTCNVAHPASKTKVDKPVPKRENGRVPRPPDCPKCPAPEMLGGPSVFIFPPKPKDTLLIARTPEVTCVVVDLDPEDPEVQISWFVDGKQMQTAKTQPREEQFNGTYRVVSVLPIGHQDWLKGKQFTCKVNNKALPSPIERTISKARGQAHQPSVYVLPPSREELSKNTVSLTCLIKDFFPPDIDVEWQSNGQQEPESKYRTTPPQLDEDGSYFLYSKLSVDKSRWQRGDTFICAVMHEALHKHYTQESLSHSPGK light: EIVMTQSPASLSLSQEEKVTITCKASQSVSFAGTGLMHWYQQKPGQAPKLLIYRASNLEAGVPSRFSGSGSGTDFSFTISSLEPEDVAVYYCQQSREYPWTFGQGTKLEIKRNDAQPAVYLFQPSPDQLHTGSASVVCLLNSFYPKDINVKWKVDGVIQDTGIQESVTEQDKDSTYSLSSTLTMSSTEYLSHELYSCEITHKSLPSTLIKSFQRSEC |
